Results reported in US20200057047A1 (NATIONAL HEALTH RESEARCH INSTITUTES, published 2020).

Target: T1, Myc-tagged IQGAP1 (wild type) (Homo sapiens (Human), UniProt P46940 1-1657, phosphoserine at 480 where phosphorylated by GLK, as the filing reports)
T1 construct: the same molecule is used here; also called Myc-IQGAP1; IQGAP1 WT; not shown: Myc tag
Assay: co-IP of anti-Flag immunocomplexes, HEK293T cells treated with 25 µM pervanadate (FIG. 18E)
Protocol: (A) Silver-stained gel of anti-Flag immunoprecipitates from HEK293T cells transfected with empty vector or Flag-tagged GLK in the presence or absence of the tyrosine phosphatase inhibitor pervanadate (25 μM). Arrows indicate the positions of GLK or GLK-interacting proteins. (B) Four pervanadate-induced tyrosine phosphorylation residues of GLK proteins were listed. (C and D) Co-immunoprecipitation of anti-Flag (C) or anti-Myc (D) immunocomplexes from lysates of HEK293T cells transfected with Flag-tagged GLK, Myc-tagged IQGAP1, or both plasmids. The whole-cell lysate immunoblots before immunoprecipitation (Pre-IP) are shown at the bottom of each panel. β-Tubulin was used as the loading control. (E) Co-immunoprecipitation of anti-Flag immunocomplexes from lysates of HEK293T cells transfected with either Flag-tagged GLK or Flag-tagged GLK mutant (Y366F, Y379F, Y574F, or Y735F). HEK293T cells were treated with 25 μM pervanadate for 2 h (F) In situ PI A of HEK293T cells transfected with empty vector, 3× Flag-tagged GLK, Myc-tagged IQGAP1, or GLK together with IQGAP1 plasmids. Arrows indicate the PLA signals (red spots). Original magnification, ×40. Scale bar, 10 μm. (G) The relative PLA signal of each group per field is shown on the plot. (H) FRET assays of HEK293T cells transfected with the indicated plasmids encoding CFP- and YFP-fused GLK and IQGAP1 proteins. […]

T1 sequence (P46940 whole entry): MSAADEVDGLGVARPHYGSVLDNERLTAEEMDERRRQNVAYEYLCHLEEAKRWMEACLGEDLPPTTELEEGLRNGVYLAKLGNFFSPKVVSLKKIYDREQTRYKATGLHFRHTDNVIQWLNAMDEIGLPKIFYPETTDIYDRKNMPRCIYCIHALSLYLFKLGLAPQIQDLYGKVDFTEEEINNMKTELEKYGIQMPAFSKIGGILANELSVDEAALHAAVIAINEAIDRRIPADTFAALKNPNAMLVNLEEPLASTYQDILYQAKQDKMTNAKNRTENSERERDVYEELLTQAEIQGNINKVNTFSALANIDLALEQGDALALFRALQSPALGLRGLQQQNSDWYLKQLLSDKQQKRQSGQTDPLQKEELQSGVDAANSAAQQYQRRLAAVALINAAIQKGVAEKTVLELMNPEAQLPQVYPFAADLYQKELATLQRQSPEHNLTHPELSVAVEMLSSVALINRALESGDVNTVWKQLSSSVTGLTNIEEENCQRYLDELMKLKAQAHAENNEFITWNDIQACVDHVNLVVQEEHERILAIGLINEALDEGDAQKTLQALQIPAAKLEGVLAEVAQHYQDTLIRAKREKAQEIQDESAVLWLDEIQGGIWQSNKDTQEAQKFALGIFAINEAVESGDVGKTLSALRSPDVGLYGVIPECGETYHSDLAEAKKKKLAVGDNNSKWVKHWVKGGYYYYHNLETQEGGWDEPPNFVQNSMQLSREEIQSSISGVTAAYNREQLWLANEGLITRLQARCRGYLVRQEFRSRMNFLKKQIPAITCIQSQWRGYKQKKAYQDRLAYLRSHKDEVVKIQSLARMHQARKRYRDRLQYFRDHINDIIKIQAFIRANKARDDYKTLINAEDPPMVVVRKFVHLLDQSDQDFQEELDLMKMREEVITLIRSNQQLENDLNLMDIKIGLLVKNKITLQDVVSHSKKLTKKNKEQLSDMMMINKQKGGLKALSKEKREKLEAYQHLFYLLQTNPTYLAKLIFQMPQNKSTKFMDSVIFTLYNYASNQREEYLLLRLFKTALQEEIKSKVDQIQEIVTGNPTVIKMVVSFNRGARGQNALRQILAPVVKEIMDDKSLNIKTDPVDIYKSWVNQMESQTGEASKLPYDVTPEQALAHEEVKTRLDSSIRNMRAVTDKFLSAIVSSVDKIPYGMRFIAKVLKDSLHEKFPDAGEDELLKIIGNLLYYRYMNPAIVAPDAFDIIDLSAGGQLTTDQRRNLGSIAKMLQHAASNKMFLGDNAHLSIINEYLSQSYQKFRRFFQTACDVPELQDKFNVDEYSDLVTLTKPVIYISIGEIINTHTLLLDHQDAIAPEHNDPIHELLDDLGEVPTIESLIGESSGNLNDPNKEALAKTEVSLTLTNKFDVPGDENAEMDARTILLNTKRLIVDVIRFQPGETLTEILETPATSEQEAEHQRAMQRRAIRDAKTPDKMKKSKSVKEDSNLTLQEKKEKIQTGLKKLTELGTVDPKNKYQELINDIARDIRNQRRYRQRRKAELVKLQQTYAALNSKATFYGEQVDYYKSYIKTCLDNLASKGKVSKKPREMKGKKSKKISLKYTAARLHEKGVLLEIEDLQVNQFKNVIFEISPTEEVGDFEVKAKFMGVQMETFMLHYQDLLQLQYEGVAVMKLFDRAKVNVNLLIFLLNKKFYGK

B1: Flag-tagged GLK (Y735F) mutant (enzyme)
chain: DYKDDDDKMNPGFDLSRRNPQEDFELIQRIGSGTYGDVYKARNVNTGELAAIKVIKLEPGEDFAVVQQEIIMMKDCKHPNIVAYFGSYLRRDKLWICMEFCGGGSLQDIYHVTGPLSELQIAYVSRETLQGLYYLHSKGKMHRDIKGANILLTDNGHVKLADFGVSAQITATIAKRKSFIGTPYWMAPEVAAVERKGGYNQLCDLWAVGITAIELAELQPPMFDLHPMRALFLMTKSNFQPPKLKDKMKWSNSFHHFVKMALTKNPKKRPTAEKLLQHPFVTQHLTRSLAIELLDKVNNPDHSTYHDFDDDDPEPLVAVPHRIHSTSRNVREEKTRSEITFGQVKFDPPLRKETEPHHELPDSDGFLDSSEEIYYTARSNLDLQLEYGQGHQGGYFLGANKSLLKSVEEELHQRGHVAHLEDDEGDDDESKHSTLKAKIPPPLPPKPKSIFIPQEMHSTEDENQGTIKRCPMSGSPAKPSQVPPRPPPPRLPPHKPVALGNGMSSFQLNGERDGSLCQQQNEHRGTNLSRKEKKDVPKPISNGLPPTPKVHMGACFSKVFNGCPLKIHCASSWINPDTRDQYLIFGAEEGIYTLNLNELHETSMEQLFPRRCTWLYVMNNCLLSISGKASQLYSHNLPGLFDYARQMQKLPVAIPAHKLPDRILPRKFSVSAKIPETKWCQKCCVVRNPYTGHKYLCGALQTSIVLLEWVEPMQKFMLIKHIDFPIPCPLRMFEMLVVPEQEFPLVCVGVSRGRDFNQVVRFETVNPNSTSSWFTESDTPQTNVTHVTQLERDTILVCLDCCIKIVNLQGRLKSSRKLSSELTFDFQIESIVCLQDSVLAFWKHGMQGRSFRSNEVTQEISDSTRIFRLLGSDRVVVLESRPTDNPTANSNLYILAGHENSY
binding result: no binding
